Source: patent US20180273635A1 (Zymeworks, published 2018)
Numbering of substitutions follows the chain as printed. Numbers in names are those of the source.

B1: Variant 14019 (antibody, name in Kabat numbering, V domains shown)
VH: EVQLVESGGGLVQPGGSLRLSCAASGFTFQDYTMDWVRQAPGKGLEWVGDVNPNSGGSIYNQRFKGRFTFSVDRSWNTLYLQMNSLRAEDTAVYYCARNLGPSFYFDYWGQGTLVTVSS
VL: DIQMTQSPSSLSASVGDRVTITCKASQDVSIGVAWYQQKPGKAPKLLIYSASYRYTGVPSRFSGSGSGTDFTLTISSLQPEDFATYYCQQYYIYPYTFGQGTKVEIKR
notes: also called v14019
B2: Variant 14020 (antibody, name in Kabat numbering, V domains shown)
VH: B1 VH with W76K, S103W
VL: B1 VL
notes: also called v14020
B3: Variant 14018 (antibody, name in Kabat numbering, V domains shown)
VH: B1 VH with Q30T
VL: B1 VL with Y49W
notes: also called v14018
B4: variant 12536 (antibody, human IgG1, kappa)
heavy: EVQLVESGGGLVQPGGSLRLSCAASGFTFTDYTMDWVRQAPGKGLEWVADVNPNSGGSIYNQRFKGRFTLSVDRSKNTLYLQMNSLRAEDTAVYYCARNLGPSFYFDYWGQGTLVTVSSASTKGPSVFPLAPSSKSTSGGTAALGCLVKDYFPEPVTVSWNSGALTSGVHTFPAVLQSSGLYSLSSVVTVPSSSLGTQTYICNVNHKPSNTKVDKKVEPKSCDKTHTCPPCPAPELLGGPSVFLFPPKPKDTLMISRTPEVTCVVVDVSHEDPEVKFNWYVDGVEVHNAKTKPREEQYNSTYRVVSVLTVLHQDWLNGKEYKCKVSNKALPAPIEKTISKAKGQPREPQVYVYPPSRDELTKNQVSLTCLVKGFYPSDIAVEWESNGQPENNYKTTPPVLDSDGSFALVSKLTVDKSRWQQGNVFSCSVMHEALHNHYTQKSLSLSPG
light: not shown
chain: not shown
notes: OA pertuzumab variant, LC Y96G (Kabat); also called v12536
B5: variant 12538 (antibody, human IgG1, kappa)
heavy: B4 heavy
light: not shown
chain: not shown
notes: OA pertuzumab variant, LC Y49W (Kabat); also called v12538
B6: variant 12540 (antibody, human IgG1, kappa)
heavy: B4 heavy
light: not shown
chain: not shown
notes: OA pertuzumab variant, LC Y96V (Kabat); also called v12540
B7: Variant 12482 (antibody, human IgG1, kappa)
heavy: B4 heavy with T30F
light: not shown
chain: not shown
notes: OA (one-armed) format; clones 7817, 1811, 4372; also called v12482
B8: Variant 12610 (antibody, human IgG1, kappa)
heavy: B4 heavy with T30A
light: not shown
chain: not shown
notes: OA (one-armed) format; clones 3376, 1811, 4372; also called v12610
B9: Variant 12505 (antibody, human IgG1, kappa)
heavy: B4 heavy with K76E
light: not shown
chain: not shown
notes: OA (one-armed) format; clones 7843, 1811, 4372; also called v12505
B10: Variant 12536 (antibody, human IgG1, kappa)
heavy: B4 heavy
light: not shown
chain: not shown
notes: OA (one-armed) format; clones 3057, 7917, 4372; also called v12536
B11: Variant 12502 (antibody, human IgG1, kappa)
heavy: B4 heavy with S75W
light: not shown
chain: not shown
notes: OA (one-armed) format; clones 7840, 1811, 4372; also called v12502
B12: Variant 12479 (antibody, human IgG1, kappa)
heavy: B4 heavy with T30N
light: not shown
chain: not shown
notes: OA (one-armed) format; clones 7814, 1811, 4372; also called v12479
B13: Variant 12506 (antibody, human IgG1, kappa)
heavy: B4 heavy with K76W
light: not shown
chain: not shown
notes: OA (one-armed) format; clones 7844, 1811, 4372; also called v12506
B14: Variant 12538 (antibody, human IgG1, kappa)
heavy: B4 heavy
light: not shown
chain: not shown
notes: OA (one-armed) format; clones 3057, 7919, 4372; also called v12538
B15: Variant 12491 (antibody, human IgG1, kappa)
heavy: B4 heavy with G57F
light: not shown
chain: not shown
notes: OA (one-armed) format; clones 7826, 1811, 4372; also called v12491
B16: Variant 12478 (antibody, human IgG1, kappa)
heavy: B4 heavy with T30Y
light: not shown
chain: not shown
notes: OA (one-armed) format; clones 7813, 1811, 4372; also called v12478
B17: Variant 12514 (antibody, human IgG1, kappa)
heavy: B4 heavy with S103W
light: not shown
chain: not shown
notes: OA (one-armed) format; clones 7852, 1811, 4372; also called v12514
B18: Variant 12480 (antibody, human IgG1, kappa)
heavy: B4 heavy with T30Q
light: not shown
chain: not shown
notes: OA (one-armed) format; clones 7815, 1811, 4372; also called v12480
B19: Variant 12490 (antibody, human IgG1, kappa)
heavy: B4 heavy with G57Y
light: not shown
chain: not shown
notes: OA (one-armed) format; clones 7825, 1811, 4372; also called v12490

Target: T1, HER2 expressed on the surface of cells (human, UniProt P04626 23-1255)
T1 construct: whole, on cells; also called ErbB2
Assay: flow cytometry on BT474 cells, n=1
Description: (§1) Binding of the test antigen-binding constructs to the surface of HER2+ cells was determined by flow cytometry. Cells were washed with PBS and resuspended in DMEM at 1×10⁵ cells/100 μl. 100 μl cell suspension was added into each microcentrifuge tube, followed by 10 μl/tube of the antigen-binding constructs. The tubes were incubated for 2 hr at 4° C. on a rotator. The microcentrifuge tubes were centrifuged for 2 min 2000 RPM at room temperature and the cell pellets washed with 500 μl media. Each cell pellet was resuspended in 100 μl of fluorochrome-labelled secondary antibody diluted in media to 2 μg/sample. The samples were then incubated for lhr at 4° C. on a rotator. After incubation, the cells were centrifuged for 2 min at 2000 rpm and washed in media. The cells were resuspended in 500 μl media, filtered, transferred to a tube containing 5 μl propidium iodide (PI) and analyzed on a BD LSR II flow cytometer according to the manufacturer's instructions. The B50 of the tested antigen-binding constructs was assessed by FACS with data analysis and curve fitting performed in GraphPad Prism. The experiment was carried out once (n=1) in SKBr3 cells, and twice (n=2) in SKOV3, MCF7, and BT-474 cells.
(§2) The experiment was performed once (n=1) in each cell line.

Binder | Bmax
B1 | 23000 MFI
B2 | 22000 MFI
B3 | 22000 MFI

Target: T2, Recombinant human HER2 (human, UniProt P04626 23-652)
T2 construct: extracellular domain; analyte of the SPR assays; also called HER2 ECD; ECD2 of HER2
Assay: SPR, pre-SEC; ratio to WT v10013;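 also: SPR on Biacore T200 at 25 °C, constructs captured via anti-human Fc on CM5 chip, HER2 ECD as analyte, 1:1 Langmuir global fit, after protein A purification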
Description: (§3) The affinity towards HER2 ECD of the samples was measured by SPR on a Biacore T200 as follows. Between 2000 and 4000 RU of anti-human Fc injected at concentration between 5 and 10 μg/ml was immobilized on a CM5 chip using standard amine coupling. Antigen-binding constructs were captured on the anti-human Fc (injected at concentration at 0.51 microg/mL in PBST, 1 min at 10 microl/min) at response levels ranging from 120-270 RU. […] HER2 dilutions were analyzed in duplicates. Sensograms were fit globally to a 1: 1 Langmuir binding model, using the software provided with the Biacore T200. All experiments were conducted at 25° C.
(§4) The affinity of antigen-binding constructs in OA format was determined by SPR following protein A purification. […] Antigen-binding constructs in FSA format were purified by protein A affinity and SEC prior to assessment of affinity by SPR.

Binder | Ka, mut/Ka, WT
B4 | 4.1
B5 | 4.2
B6 | 1.6

Target: T3, Recombinant human HER2 (human, UniProt P04626 23-652)
T3 construct: extracellular domain; Analyte of the SPR assays; also called HER2 ECD; ECD2 of HER2
Assay: calculated from the SPR Ka ratio to WT, -RTln(Ka,mut/Ka,WT), 298 K

Binder | ΔΔG
B7 | -0.6 kcal/mol
B8 | -0.9 kcal/mol
B9 | -0.8 kcal/mol
B10 | -0.8 kcal/mol
B11 | -1 kcal/mol
B12 | -0.9 kcal/mol
B13 | -2 kcal/mol
B14 | -0.9 kcal/mol
B15 | -0.4 kcal/mol
B16 | -0.8 kcal/mol
B17 | -0.9 kcal/mol
B18 | -0.9 kcal/mol
B19 | -0.6 kcal/mol

Target: T1, HER2 expressed on the surface of cells
Assay: cell-based or functional assay

Binder | growth inhibition IC50 (potency), BT474 cells + EGF | growth inhibition span (percentage of cells killed), BT474 cells + EGF | growth inhibition span ratio to WT, BT474 cells + EGF
B1 | 1.1 nM | 33% | 1.8 fold
B2 | 1.7 nM | 37% | 2 fold
B3 | 1.7 nM | 33% | 1.8 fold

Target: T3, Recombinant human HER2
Assay: SPR post-SEC (value taken over from Table 5); Ka ratio to WT v10013
Description: as §3, §4

Binder | Ka, mut/Ka, WT
B7 | 2.9 fold
B8 | 4.5 fold
B9 | 3.7 fold
B10 | 4 fold
B11 | 5.3 fold
B12 | 4.7 fold
B13 | 30.6 fold
B14 | 4.8 fold
B15 | 2.1 fold
B16 | 3.6 fold
B17 | 4.5 fold
B18 | 4.7 fold
B19 | 2.7 fold

Target: T1, HER2 expressed on the surface of cells
Assay: flow cytometry on MCF7 cells (low HER2), n=1
Description: as §1, §2

Binder | Bmax
B1 | 670 MFI
B2 | 640 MFI
B3 | 680 MFI

Target: T1, HER2 expressed on the surface of cells
Assay: cell-based or functional assay
Remark: another data set of the same source

Binder | growth inhibition IC50 (potency), SKBR3 cells | growth inhibition span (percentage of cells killed), SKBR3 cells | growth inhibition span ratio to WT, SKBR3 cells
B1 | 0.25 nM | 25% | 1.5 fold
B2 | 0.17 nM | 26% | 1.6 fold
B3 | 0.28 nM | 29% | 1.7 fold

Target: T1, HER2 expressed on the surface of cells
Assay: flow cytometry on SKBR3 cells, n=1; B50 = concentration at 50% of Bmax
Description: as §1, §2

Binder | B50
B1 | 14 nM
B2 | 21 nM
B3 | 8.4 nM

Target: T1, HER2 expressed on the surface of cells
Assay: flow cytometry on MCF7 cells (low HER2), n=1; B50 = concentration at 50% of Bmax
Description: as §1, §2

Binder | B50
B1 | 1.4 nM
B2 | 2.6 nM
B3 | 0.9 nM

Target: T1, HER2 expressed on the surface of cells
Assay: flow cytometry on BT474 cells, n=1; B50 = concentration at 50% of Bmax
Description: as §1, §2

Binder | B50
B1 | 2.9 nM
B2 | 4.1 nM
B3 | 2.4 nM

Target: T1, HER2 expressed on the surface of cells
Assay: cell-based or functional assay
Remark: another data set of the same source

Binder | growth inhibition IC50 (potency), NCI-N87 cells, 5 days | growth inhibition span (percentage of cells killed), NCI-N87 cells | increase in efficacy with respect to the WT, NCI-N87 cells | increase in potency with respect to the WT, NCI-N87 cells
B1 | 4.1 nM | 37% | 2.2 fold | 2.2 fold
B2 | 3.5 nM | 55% | 3.2 fold | 2.6 fold
B3 | 2.1 nM | 32% | 1.9 fold | 4.3 fold

Target: T1, HER2 expressed on the surface of cells
Assay: cell-based or functional assay
Remark: another data set of the same source

Binder | growth inhibition span (percentage of cells killed), MDA-MB-175 cells
B1 | 85%
B2 | 80%
B3 | 85%

Target: T2, Recombinant human HER2
Assay: SPR, variant captured on anti-human Fc, HER2 flowed, 25 C, pre-SEC;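 also: HER2 extracellular domain binding on Biacore T200, CM5 chip with amine-coupled anti-human Fc, duplicate antigen dilutions, global 1:1 Langmuir fit, measured after protein A purification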
Description: as §3, §4

Binder | Kd
B4 | 4.8 nM
B5 | 4.7 nM
B6 | 12 nM

Target: T1, HER2 expressed on the surface of cells
Assay: flow cytometry on SKBR3 cells, n=1
Description: as §1, §2

Binder | Bmax
B1 | 29000 MFI
B2 | 33000 MFI
B3 | 32000 MFI

Target: T1, HER2 expressed on the surface of cells
Assay: cell-based or functional assay
Remark: another data set of the same source

Binder | growth inhibition IC50 (potency), BT474 cells | growth inhibition span (percentage of cells killed), BT474 cells | growth inhibition span ratio to WT, BT474 cells
B1 | 0.51 nM | 32% | 3 fold
B2 | 0.55 nM | 27% | 2.6 fold
B3 | 0.66 nM | 30% | 2.8 fold

Target: T2, Recombinant human HER2
Assay: SPR, variant captured on anti-human Fc, HER2 flowed, 25 C, post-SEC
Description: as §3, §4

Binder | Kd
B4 | 5.2 nM
B5 | 4.4 nM
B6 | 11 nM

Target: T2, Recombinant human HER2
Assay: SPR, post-SEC; ratio to WT v10013
Description: as §3, §4

Binder | Ka, mut/Ka, WT
B4 | 4
B5 | 4.8
B6 | 1.9
